Laboratory results from patent publication US20160137732A1.

Biological target: complement protein C1q (human) (UniProt P02745)
Assay: cell-based or functional assay

Sequence of UniProt P02745 (P02745 23-245 limits assumed, chain 1 of 3): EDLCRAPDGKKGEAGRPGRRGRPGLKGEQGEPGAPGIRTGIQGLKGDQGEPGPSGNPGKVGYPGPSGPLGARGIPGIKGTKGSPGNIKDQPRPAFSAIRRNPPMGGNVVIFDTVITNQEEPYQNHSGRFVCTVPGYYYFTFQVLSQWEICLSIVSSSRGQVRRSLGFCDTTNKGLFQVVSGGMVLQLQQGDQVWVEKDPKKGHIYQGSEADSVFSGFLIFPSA
Sequence of UniProt P02745 (P02746 28-253 limits assumed, chain 2 of 3, further chain): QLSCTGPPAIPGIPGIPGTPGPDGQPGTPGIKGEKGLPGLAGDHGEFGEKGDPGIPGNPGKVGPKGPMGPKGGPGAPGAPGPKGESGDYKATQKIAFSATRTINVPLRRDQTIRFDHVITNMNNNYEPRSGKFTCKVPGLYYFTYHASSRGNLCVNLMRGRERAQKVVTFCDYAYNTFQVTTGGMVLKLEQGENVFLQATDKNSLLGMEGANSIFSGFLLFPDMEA
Sequence of UniProt P02745 (P02747 29-245 limits assumed, chain 3 of 3, further chain): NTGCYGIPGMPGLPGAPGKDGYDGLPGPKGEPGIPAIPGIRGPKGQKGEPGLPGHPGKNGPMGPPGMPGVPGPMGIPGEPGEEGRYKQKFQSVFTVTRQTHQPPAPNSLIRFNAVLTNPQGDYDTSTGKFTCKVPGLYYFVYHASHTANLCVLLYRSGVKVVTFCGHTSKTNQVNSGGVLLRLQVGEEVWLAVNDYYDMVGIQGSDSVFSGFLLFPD

Substance	average fold-increase in the EC50 value compared with wild-type Hu1D10-IgG1 antibody (CDC) [fold]	average fold-increase in the maximum percent lysis (CDC) [fold]	fold-increase in the EC50 value compared with wild-type Hu1D10-IgG1 antibody (CDC) [fold]	fold-increase in the maximum percent lysis (CDC) [fold]
Hu1D10-IgG1 double mutant S324N/I332F (antibody)	13 to 16	1.3 to 1.4	–	–
Hu1D10-IgG1 double mutant S324N/I332M (antibody)	13 to 16	1.3 to 1.4	–	–
Hu1D10-IgG1 double mutant S324W/I332M (antibody)	13 to 16	1.3 to 1.4	–	–
Hu1D10-IgG1 single mutant I332F (antibody)	–	–	2.5	1.2 to 1.4
Hu1D10-IgG1 single mutant S324Y (antibody)	–	–	2	–

Other lines, results leading:

average fold-increase in the EC50 value compared with wild-type Hu1D10-IgG1 antibody (CDC) [fold]	average fold-increase in the maximum percent lysis (CDC) [fold]	fold-increase in the EC50 value compared with wild-type Hu1D10-IgG1 antibody (CDC) [fold]	fold-increase in the maximum percent lysis (CDC) [fold]	Substance
13 to 16	1.3 to 1.4	–	–	Hu1D10-IgG1 double mutant S324W/I332F (antibody)
–	–	1.5	1.2 to 1.4	Hu1D10-IgG1 single mutant I332G (antibody)
–	–	2.5	1.2 to 1.4	Hu1D10-IgG1 single mutant I332M (antibody)
–	–	2	–	Hu1D10-IgG1 single mutant S324M (antibody)
